Measurements taken from paper PMC3159454 (Nucleic Acids Research, 2011).

Target: the molecule itself
Assay: SEC

B1: Elk-1 (recombinant, full length) (natural protein, UniProt P19419 1-428, looked up)
chain: MDPSVTLWQFLLQLLREQGNGHIISWTSRDGGEFKLVDAEEVARLWGLRKNKTNMNYDKLSRALRYYYDKNIIRKVSGQKFVYKFVSYPEVAGCSTEDCPPQPEVSVTSTMPNVAPAAIHAAPGDTVSGKPGTPKGAGMAGPGGLARSSRNEYMRSGLYSTFTIQSLQPQPPPHPRPAVVLPSAAPAGAAAPPSGSRSTSPSPLEACLEAEEAGLPLQVILTPPEAPNLKSEELNVEPGLGRALPPEVKVEGPKEELEVAGERGFVPETTKAEPEVPPQEGVPARLPAVVMDTAGQAGGHAASSPEISQPQKGRKPRDLELPLSPSLLGGPGPERTPGSGSGSGLQAPGPALTPSLLPTHTLTPVLLTPSSLPPSIHFWSTLSPIAPRSPAKLSFQFPSSGSAQVHIPSISVDGLSTPVVLSPGPQKP
B1 was tested, and the “stoichiometry N” value was 2.
